The stoichiometry N is the number of molecules, sites or subunits per partner or assembly.

Among the data in publication PMC9540369 are stoichiometry N values, retold here.

In this assay the target is mTFP1. Briefly: SDS-PAGE with in-gel fluorescence; whole-cell extract of C. reinhardtii transformants in SDS sample buffer without β-mercaptoethanol, 40°C for 5 min; 15% resolving gel; gel washed in water to refold the fluorescent proteins; imaged with bandpass filters.

Take mTFP1: the stoichiometry N is 2.
